The labels stand for the following.
T1: cynomolgus monkey MST1R with N-terminal Flag tag, expressed on HEK293T cells (cynomolgus monkey, UniProt Q04912 27-1400 (human entry))
T1 construct: ORF cloned excluding the signal peptide region; also called cynomolgus MST1R; not shown: N-terminal Flag tag from vector pFLAG-myc-CMV-19 (Sigma)
T1 chain: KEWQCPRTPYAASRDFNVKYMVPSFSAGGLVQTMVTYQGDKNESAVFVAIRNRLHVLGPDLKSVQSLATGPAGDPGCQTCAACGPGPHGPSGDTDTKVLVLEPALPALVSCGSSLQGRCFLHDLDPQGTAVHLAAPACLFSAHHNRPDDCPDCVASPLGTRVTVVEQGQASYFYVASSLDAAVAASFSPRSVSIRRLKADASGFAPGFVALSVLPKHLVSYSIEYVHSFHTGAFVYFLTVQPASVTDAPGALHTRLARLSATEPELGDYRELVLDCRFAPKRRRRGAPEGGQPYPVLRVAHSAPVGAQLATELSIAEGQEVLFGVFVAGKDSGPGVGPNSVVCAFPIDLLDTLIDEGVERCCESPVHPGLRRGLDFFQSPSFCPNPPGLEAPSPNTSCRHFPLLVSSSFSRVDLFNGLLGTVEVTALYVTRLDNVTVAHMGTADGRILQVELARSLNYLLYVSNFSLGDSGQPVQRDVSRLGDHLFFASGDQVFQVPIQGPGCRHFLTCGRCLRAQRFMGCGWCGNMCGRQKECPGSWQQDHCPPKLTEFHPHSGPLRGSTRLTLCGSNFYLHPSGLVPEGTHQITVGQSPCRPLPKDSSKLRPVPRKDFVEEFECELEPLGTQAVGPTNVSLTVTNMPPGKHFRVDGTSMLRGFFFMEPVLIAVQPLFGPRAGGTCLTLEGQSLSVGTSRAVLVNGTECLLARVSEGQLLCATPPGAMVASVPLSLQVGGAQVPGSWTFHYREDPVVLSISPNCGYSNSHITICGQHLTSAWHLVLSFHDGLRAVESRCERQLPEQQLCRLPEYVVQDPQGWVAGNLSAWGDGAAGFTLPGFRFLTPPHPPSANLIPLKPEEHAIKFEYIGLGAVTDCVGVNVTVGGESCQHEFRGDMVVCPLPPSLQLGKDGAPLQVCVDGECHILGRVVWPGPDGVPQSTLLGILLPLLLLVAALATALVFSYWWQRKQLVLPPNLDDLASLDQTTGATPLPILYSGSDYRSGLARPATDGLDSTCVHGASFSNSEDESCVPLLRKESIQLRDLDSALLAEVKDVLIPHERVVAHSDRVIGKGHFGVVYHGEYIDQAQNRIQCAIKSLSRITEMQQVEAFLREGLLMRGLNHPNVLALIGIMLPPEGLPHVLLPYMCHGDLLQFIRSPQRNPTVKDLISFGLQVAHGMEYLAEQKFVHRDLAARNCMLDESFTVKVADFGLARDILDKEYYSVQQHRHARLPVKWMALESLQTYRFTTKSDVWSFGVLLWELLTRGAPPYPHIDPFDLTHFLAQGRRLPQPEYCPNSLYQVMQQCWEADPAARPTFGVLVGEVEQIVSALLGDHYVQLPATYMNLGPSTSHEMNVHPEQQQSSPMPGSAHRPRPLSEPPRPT

B1: MOR07923 (human IgG1) (antibody, V domains shown)
VH: QVQLVESGGGLVQPGGSLRLSCAASGFTFNSYSMSWVRQAPGKGLEWVSYISSRSSTTYYADSVKGRFTISRDNSKNTLYLQMNSLRAEDTAVYYCARGYFHGMDYWGQGTLVTVSS
VL: DIVLTQSPATLSLSPGERATLSCRASQSVSFDYLGWYQQKPGQAPRLLIYGASNRATGVPARFSGSGSGTDFTLTISSLEPEDFATYYCFQYLIVPFTFGQGTKVEIKR
B2: MOR07924 (human IgG1) (antibody, V domains shown)
VH: QVQLVESGGGLVQPGGSLRLSCAASGFTFNSYSMSWVRQAPGKGLEWVSYISSRSSTTYYADSVKGRFTISRDNSKNTLYLQMNSLRAEDTAVYYCARGYFHGMDYWGQGTLVTVSS
VL: DIVLTQSPATLSLSPGERATLSCRASQSVSFDYLGWYQQKPGQAPRLLIYGASNRATGVPARFSGSGSGTDFTLTISSLEPEDFATYYCQQYNINPFTFGQGTKVEIKR
B3: MOR07925 (human IgG1) (antibody, V domains shown)
VH: QVQLVESGGGLVQPGGSLRLSCAASGFTFNSYSMSWVRQAPGKGLEWVSYISSRSSTTYYADSVKGRFTISRDNSKNTLYLQMNSLRAEDTAVYYCARGYFHGMDYWGQGTLVTVSS
VL: DIVLTQSPATLSLSPGERATLSCRASQSVSFDYLGWYQQKPGQAPRLLIYGASNRATGVPARFSGSGSGTDFTLTISSLEPEDFATYYCLQYFNPPHTFGQGTKVEIKR
B4: MOR07926 (human IgG1) (antibody, V domains shown)
VH: QVQLVESGGGLVQPGGSLRLSCAASGFTFNSYSMSWVRQAPGKGLEWVSYISSRSSTTYYADSVKGRFTISRDNSKNTLYLQMNSLRAEDTAVYYCARGYFHGMDYWGQGTLVTVSS
VL: DIVLTQSPATLSLSPGERATLSCRASQSVSFDYLGWYQQKPGQAPRLLIYGASNRATGVPARFSGSGSGTDFTLTISSLEPEDFATYYCFQALIMPFTFGQGTKVEIKR
B5: MOR07692 (human IgG1) (antibody, V domains shown)
VH: QVQLVESGGGLVQPGGSLRLSCAASGFTFNSYSMSWVRQAPGKGLEWVSYISSRSSTTYYADSVKGRFTISRDNSKNTLYLQMNSLRAEDTAVYYCARGYFHGMDYWGQGTLVTVSS
VL: DIVLTQSPATLSLSPGERATLSCRASQSVSFDYLGWYQQKPGQAPRLLIYGASNRATGVPARFSGSGSGTDFTLTISSLEPEDFATYYCQQYYNMPYTFGQGTKVEIKR

This test has as its target T1, cynomolgus monkey MST1R with N-terminal …. Put plainly: flow cytometry on transfected HEK293T cells, 2 ug/ml IgG1. Here is the method:
Cells (5×10⁵ cells/well) were incubated with Fab or IgG antibodies at the indicated concentrations in 50 μl FACS buffer (PBS, 5% FCS) for 60 min at 4° C. in round bottom 96-well culture plates (Corning). Cells were washed twice and then incubated with Fluorescein Isothiocyanate (FITC) conjugated detection antibody for 30 min at 4° C. Cells were washed again, resuspended in 0.3 ml FACS buffer and then analyzed by flow cytometry in a Cytomics FC500 (Beckman Coulter, Inc.). Data were analysed via FlowJo software (Tomy digital biology Co., Ltd.). Polyclonal goat anti-hMSP R IgG (R&D systems) or anti-FLAG M2 antibody (Sigma) was used as a positive control and MOR03207 (anti-lysozyme) antibody was used as a negative control.
FACS-analysis of MST1R ortholog-expressing cells: Human MST1R (cDNA nucleotide sequence is shown as GenBank Accession No: NM_{—}002447.2), cynomolgus monkey MST1R and mouse MST1R (cDNA nucleotide sequence is shown as GeneBank Accession No: NM_{—}009074.1) expression vector containing N-terminal Flag tag (pFLAG-myc-CMV-19, Sigma) were constructed. cDNA encoding cynomolgus monkey MST1R was amplified by PCR using cynomolgus monkey stomach cDNA as a template with forward and reverse primers having nucleotide sequences of SEQ ID NO: 34 and 35, respectively. By sequencing analysis of PCR product, the cynomolgus MST1R ORF nucleotide sequence was identified as shown in SEQ ID NO: 36. The corresponding amino acid sequence was shown in SEQ ID NO: 37. Then human, cynomolgus monkey and mouse MST1R ORF cDNA, excluding signal peptide regions, were amplified using respective forward and reverse primers having nucleotide sequences of SEQ ID NO: 38 and 39 (human), 40 and 41 (cynomolgus monkey), and 42 and 43 (mouse) with appropriate cloning sites and then cloned into pFLAG-myc-CMV-19. An amplified human MST1R fragment encodes amino acids corresponding to GenBank Accession No: NP_{—}002438.2 (SEQ ID NO: 45). A Mouse MST1R fragment encodes amino acids corresponding to GenBank Accession No: NP_{—}033100.1 (SEQ ID NO: 47) except for those amino acid differences at positions: 688 (Leu to Pro), 713 (Ile to Val), 714 (Ala to Gly) and 719 (Ala to Val). These expression vectors were transfected into HEK293T cells. For FACS-analysis, cells were incubated with 2 μg/ml primary antibodies followed by incubation with FITC-labeled secondary antibody as described above.
For the molecule B1, the binding result is “binds”.
With B2, the binding result was “binds”.
The entry for B3 is “binds”; for B4 it is “binds”.
For B5, the binding result was “binds”.

(Values after patent US20120034215A1 (Daiichi Sankyo, published 2012).)
